Assay results: the supplement of paper PMC9876800

Test system: peptide library, one residue held at a place counted from the S/T acceptor
Experiment: relative phosphorylation of the sub-library (ratio to the mean residue at this position); higher = residue favoured
Outline: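 Relative sub-library phosphorylation is a ratio to the mean residue at the same position. Purified recombinant kinases were incubated under kinase-specific conditions with biotinylated degenerate peptide sub-libraries, each fixing one residue at one position around a central Ser/Thr, using 50 μM peptide and 50 μM ATP spiked with γ-32P-ATP for 90 min. Spots captured on streptavidin membranes were phosphorimaged and quantified by densitometry.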

BMPR2, construct: aa172-end, human, sequence (Q13873 172-1038, looked up): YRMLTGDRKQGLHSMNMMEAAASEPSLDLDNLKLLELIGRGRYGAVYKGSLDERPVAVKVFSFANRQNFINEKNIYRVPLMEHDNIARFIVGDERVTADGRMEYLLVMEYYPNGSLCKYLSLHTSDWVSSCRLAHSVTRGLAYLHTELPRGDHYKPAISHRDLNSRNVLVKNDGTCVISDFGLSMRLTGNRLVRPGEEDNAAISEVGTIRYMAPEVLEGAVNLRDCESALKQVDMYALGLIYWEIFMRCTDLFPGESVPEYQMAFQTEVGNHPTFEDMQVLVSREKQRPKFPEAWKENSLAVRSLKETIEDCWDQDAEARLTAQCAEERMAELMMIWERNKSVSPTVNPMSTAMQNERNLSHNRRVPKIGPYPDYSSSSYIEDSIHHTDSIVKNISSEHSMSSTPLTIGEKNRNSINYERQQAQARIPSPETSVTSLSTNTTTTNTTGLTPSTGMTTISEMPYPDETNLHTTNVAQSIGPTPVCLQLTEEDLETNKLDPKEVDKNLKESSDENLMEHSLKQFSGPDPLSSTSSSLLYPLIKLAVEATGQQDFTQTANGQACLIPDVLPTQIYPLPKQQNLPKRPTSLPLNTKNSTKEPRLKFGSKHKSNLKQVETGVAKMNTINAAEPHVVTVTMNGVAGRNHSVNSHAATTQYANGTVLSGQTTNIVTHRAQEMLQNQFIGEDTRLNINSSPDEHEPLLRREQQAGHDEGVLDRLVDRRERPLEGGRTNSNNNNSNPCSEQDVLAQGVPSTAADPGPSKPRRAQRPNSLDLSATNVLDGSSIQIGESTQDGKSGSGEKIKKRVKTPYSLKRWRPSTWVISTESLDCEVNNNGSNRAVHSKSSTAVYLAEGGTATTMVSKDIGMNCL
STK38, construct: Full length, human, sequence (Q15208 whole entry, looked up): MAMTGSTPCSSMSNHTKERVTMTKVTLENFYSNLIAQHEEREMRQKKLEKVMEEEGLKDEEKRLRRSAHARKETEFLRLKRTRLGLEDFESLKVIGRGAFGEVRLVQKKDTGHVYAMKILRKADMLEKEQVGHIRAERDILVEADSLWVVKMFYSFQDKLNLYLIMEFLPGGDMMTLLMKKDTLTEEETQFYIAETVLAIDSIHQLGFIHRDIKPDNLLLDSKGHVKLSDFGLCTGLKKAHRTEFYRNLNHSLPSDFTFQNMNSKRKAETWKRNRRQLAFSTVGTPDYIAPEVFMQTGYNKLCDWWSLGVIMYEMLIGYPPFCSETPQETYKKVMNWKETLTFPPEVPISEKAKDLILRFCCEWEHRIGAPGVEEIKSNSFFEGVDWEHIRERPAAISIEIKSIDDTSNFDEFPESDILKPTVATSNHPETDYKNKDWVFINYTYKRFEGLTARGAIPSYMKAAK

PRKCH, construct: Full length, human (from UniProt P24723)
relative phosphorylation
Conditions	at +1	at +2	at +3	at +4	at -1	at -2	at -3	at -4	at -5
A fixed	0.536	0.49	0.738	0.933	1.07	0.893	0.78	1.1	1.19
D fixed	0.187	0.163	0.449	0.528	0.548	0.496	0.423	0.718	0.638
E fixed	0.282	0.15	0.547	0.496	0.55	0.467	0.469	0.799	0.721
F fixed	1.78	0.68	0.858	0.658	0.632	0.721	0.813	0.773	1.23
G fixed	0.374	0.299	1.06	0.926	1.42	1.13	0.776	1.12	0.955
H fixed	0.661	1.39	1.28	1.45	0.981	1.24	1.39	1.15	1.12
I fixed	1.47	0.622	0.754	0.632	0.397	0.405	0.444	0.614	0.818
K fixed	1.86	3.28	2.09	2.44	1.98	1.9	1.88	1.72	1.53
L fixed	1.19	0.561	0.883	0.64	0.733	0.438	0.551	0.66	0.852
M fixed	1.43	0.745	0.785	0.708	0.929	0.592	0.695	0.869	0.722
N fixed	0.548	0.668	0.974	1.04	1.36	1.32	0.995	1.06	0.97
P fixed	0.286	0.212	0.554	1.11	1.11	0.736	0.821	1.05	0.798
Q fixed	1.12	0.583	0.839	0.986	0.999	1.28	0.842	0.927	0.878
R fixed	2.06	4.08	2.24	1.99	2.16	3.2	4.05	1.67	1.75
V fixed	1.31	0.596	0.754	0.715	0.593	0.447	0.466	0.716	0.847
W fixed	0.831	0.669	1.05	1	0.61	1.02	0.786	1.18	1.12
Y fixed	1.07	1.81	1.16	0.753	0.94	0.696	0.824	0.878	0.857
pThr fixed	0.833	0.36	0.641	0.773	0.411	0.691	0.644	0.881	0.699
pTyr fixed	0.574	0.268	0.811	0.593	0.751	0.641	0.847	0.869	1.09

STK38, construct: Full length, human (from UniProt Q15208)
relative phosphorylation
Conditions	at +1	at +2	at +3	at +4	at -1	at -2	at -3	at -4	at -5
A fixed	0.75	1.35	0.73	0.791	0.743	0.739	0.655	0.978	0.83
D fixed	0.673	1.2	0.723	1.06	0.728	0.6	0.558	0.704	0.609
E fixed	0.644	0.483	0.631	0.807	0.524	0.494	0.476	0.71	0.477
F fixed	0.893	0.79	1.04	0.894	0.545	0.758	0.413	0.596	0.557
G fixed	1.36	1.33	1.23	1.16	1.45	0.936	0.771	1.09	0.88
H fixed	1.04	2.51	1.3	1.03	1.18	1.56	1.35	1.26	3.01
I fixed	1.07	0.495	0.738	0.891	0.325	0.38	0.31	0.575	0.498
K fixed	0.845	0.783	1.12	1.13	1.94	2.24	2.21	2.17	2.44
L fixed	0.932	0.516	1.02	0.897	0.752	0.451	0.377	0.618	0.546
M fixed	1.59	0.575	0.831	0.929	0.751	0.571	0.455	0.745	0.477
N fixed	1.13	1.11	0.954	1.16	1.34	1.23	0.841	0.878	0.795
P fixed	0.335	0.69	0.872	1.28	1.65	0.83	1.18	1.04	0.749
Q fixed	1.15	0.982	0.938	1.12	1.17	0.974	0.886	0.966	0.737
R fixed	1.06	0.87	1.27	1.1	1.61	3.03	4.9	2.46	2.35
V fixed	0.965	1.01	0.729	0.835	0.477	0.421	0.35	0.6	0.542
W fixed	1.4	1.32	1.59	1.05	0.777	1.05	0.637	0.884	0.867
Y fixed	1.18	0.992	1.29	0.865	1.03	0.727	0.636	0.733	0.636
pThr fixed	1.01	0.848	0.709	0.92	0.546	0.635	0.572	0.738	0.545
pTyr fixed	0.731	0.745	0.819	0.623	0.559	0.525	0.613	0.547	0.515

BMPR2, construct: aa172-end, human (from UniProt Q13873)
relative phosphorylation
Conditions	at +1	at +2	at +3	at +4	at -1	at -2	at -3	at -4	at -5
A fixed	0.89	1	0.941	0.96	0.845	0.887	0.99	1.11	1.08
D fixed	0.946	1.13	0.871	0.94	0.963	1.86	1.24	1.1	1.08
E fixed	1.08	1.08	0.844	0.951	0.944	1.91	1.19	1.18	1.04
F fixed	0.929	0.88	0.927	0.94	1.1	0.825	0.977	0.973	1.06
G fixed	0.969	1.04	1.1	1.02	0.839	1.05	1.08	1.01	1.06
H fixed	1.1	1.04	1.03	1	1.01	0.904	1.08	0.978	0.96
I fixed	1.02	0.889	0.92	0.868	0.862	0.728	0.892	0.911	0.971
K fixed	0.831	1.03	1.04	1.1	0.822	0.791	0.835	0.935	0.913
L fixed	1.04	0.905	0.934	0.935	1.1	0.786	0.869	0.928	0.913
M fixed	1.15	0.989	0.93	0.943	1.24	0.797	0.955	0.936	0.895
N fixed	1.02	0.987	1.01	0.963	0.968	1.05	1.03	0.938	0.898
P fixed	0.724	1.02	1.17	1.08	0.738	0.809	0.965	1.09	0.948
Q fixed	1.04	1.01	0.949	0.973	0.986	1.15	1.04	0.919	0.861
R fixed	0.933	1	1.22	1.18	0.905	0.816	0.873	0.867	0.956
V fixed	0.999	0.972	0.989	0.926	1.03	0.822	0.862	0.979	1.01
W fixed	1.1	0.94	0.998	1.16	1.24	0.855	1.03	1.05	1.18
Y fixed	1.24	1.1	1.12	1.05	1.4	0.95	1.11	1.09	1.18
pThr fixed	1.02	1.04	0.847	0.873	0.862	0.993	1.15	1.08	0.979
pTyr fixed	0.907	0.891	0.883	0.86	1.56	1.06	1.34	1.1	1.07
